Experimental data taken from patent CN103588878A (JIANGSU T MAB BIOPHARMA, dated 2014).
“And” between values parts separate entries of the source, which are not always exact repeats. Equal values may be shown once.

Columns and labels:
生物素化重组人白细胞介素1β (rhIL-1β) [1] = biological target: T1, 生物素化重组人白细胞介素1β (rhIL-1β) (human, UniProt P01584 117-269, biotinylated (site not stated)); experiment: BLI (Fortebio Octet QK), biotinylated rhIL-1β, antibody 40-1.25 nM, run 1
T1 construct: Antigen was biotinylated and desalted before the Fortebio Octet measurement; also called 抗原rhIL-1β

生物素化重组人白细胞介素1β (rhIL-1β) [2] = biological target: T1, 生物素化重组人白细胞介素1β (rhIL-1β); experiment: BLI (Fortebio Octet QK), biotinylated rhIL-1β, antibody 40-1.25 nM, run 2
生物素化重组人白细胞介素1β (rhIL-1β) [3] = biological target: T1, 生物素化重组人白细胞介素1β (rhIL-1β); experiment: BLI (Fortebio Octet QK), summary range of the two runs

B1: 人源化抗人白细胞介素1β(hIL-1β)单克隆抗体 (antibody, human IgG1, kappa, V domains shown)
VH: EVQLVESGGGLVQPGGSLRLSCAVSGFSLDVYTMTWVRQAPGKGLEWIGYIWSGGSASYASWAKGRFTISKDSSKNTVYLQINSLRAEDTAVYFCARVKMISNIETFDPWGPGTLVTVSS
VL: DIQMTQSPSSVSASVGDRVTIKCQASERIYSGLAWYQQKPGKRPKLLIYRASTLASGVPSRFSGSGSGTDFTLTISSLQPEDFATYYCQQGVSSSDIDNVFGGGTKVEIKR
notes: Full light and heavy chains; Expressed in CHO DG44 cells and purified; also called 人源化抗hIL-1β单克隆抗体; humanized form of rabbit clone Q26
B1 gave a Kd (生物素化重组人白细胞介素1β (rhIL-1β) [1]) of 21.1 pM, a koff (生物素化重组人白细胞介素1β (rhIL-1β) [1]) of 3.02e-06 s⁻¹ and a kon (生物素化重组人白细胞介素1β (rhIL-1β) [1]) of 143000 M⁻¹ s⁻¹. It also gave a Kd (生物素化重组人白细胞介素1β (rhIL-1β) [2]) of 12.8 pM, a koff (生物素化重组人白细胞介素1β (rhIL-1β) [2]) of 2.16e-06 s⁻¹ and a kon (生物素化重组人白细胞介素1β (rhIL-1β) [2]) of 166000 M⁻¹ s⁻¹. For the same binder, the Kd (生物素化重组人白细胞介素1β (rhIL-1β) [3]) was 10 pM and 25 pM.
